The target of this test is K151Q/R mutants. The experiment in a line: split reporter (BiFC, NanoBiT); split-luciferase complementation; HEK293T cells co-transfected with NLuc-mCRY1 (wild-type or mutant) and a CLuc fusion of the partner; bioluminescence read 24 h after transfection in DMEM with 100 uM D-luciferin.

Among the data in PMC12386978 are binding rate, percent of the wild type (% of the wild type) values, retold here.

Chain of CLuc-BMAL1 (Q9WTL8 whole entry): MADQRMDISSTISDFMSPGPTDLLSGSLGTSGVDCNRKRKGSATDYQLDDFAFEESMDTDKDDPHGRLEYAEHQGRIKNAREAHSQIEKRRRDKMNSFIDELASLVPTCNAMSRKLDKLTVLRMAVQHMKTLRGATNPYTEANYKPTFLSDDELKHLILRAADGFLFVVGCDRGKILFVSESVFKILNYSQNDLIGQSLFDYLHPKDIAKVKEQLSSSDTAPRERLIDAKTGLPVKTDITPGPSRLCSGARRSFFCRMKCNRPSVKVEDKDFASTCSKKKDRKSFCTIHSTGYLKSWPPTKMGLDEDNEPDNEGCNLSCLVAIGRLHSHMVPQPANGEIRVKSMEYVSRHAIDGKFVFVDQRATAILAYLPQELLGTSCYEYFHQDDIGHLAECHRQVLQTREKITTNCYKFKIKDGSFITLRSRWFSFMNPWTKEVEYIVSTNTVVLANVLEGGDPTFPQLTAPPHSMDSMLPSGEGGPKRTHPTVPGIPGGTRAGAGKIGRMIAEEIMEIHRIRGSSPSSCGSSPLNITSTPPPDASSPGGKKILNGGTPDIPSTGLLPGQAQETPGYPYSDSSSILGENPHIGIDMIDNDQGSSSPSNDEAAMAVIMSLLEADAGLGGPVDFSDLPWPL

Consider “CLuc-BMAL1 (from UniProt Q9WTL8 1-632) (natural protein)”, for which the binding rate, percent of the wild type (% of the wild type) lay within 50 to 60.
